No end group written: not given here. *: point of attachment. Biotin = O=C1N[C@H]2[C@H](CS[C@H]2CCCCC(=O)*)N1
Key:
[1] = molecular target: T1, recombinant human RSPO3 protein (human, UniProt Q9BXY4 22-272); assay: BLI (Octet, ForteBio); biotinylated RSPO3 on streptavidin sensors
T1 construct: Used biotinylated on Octet sensors, immobilised on a CM5 chip in Biacore, and coated on ELISA plates; also called hRSPO3; huRSPO3
T1 sequence (looked up): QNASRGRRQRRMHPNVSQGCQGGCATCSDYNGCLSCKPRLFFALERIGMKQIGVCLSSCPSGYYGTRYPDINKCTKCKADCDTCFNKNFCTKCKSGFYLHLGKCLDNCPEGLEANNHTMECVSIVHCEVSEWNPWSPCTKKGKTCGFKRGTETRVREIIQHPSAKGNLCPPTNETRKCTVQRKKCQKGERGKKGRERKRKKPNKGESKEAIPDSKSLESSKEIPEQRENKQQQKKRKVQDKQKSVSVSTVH
Protocol: The streptavidin-coated sensors were coated with 10 μg/ml of biotinylated RSPO3 as described in the handbook of ForteBio. Antibody concentrations were in the range of 0.75 and 93.8 nM. Quantitative kinetic binding analysis was performed with pH-adjusted PBS with 0.5% BSA. All steps were run at 30° C. with a continuous shaking speed at 1000 rpm.
To assess the RSPO3-binding affinities of the antibodies, kinetics assays were performed by the Octetsystems.

KGRERKRKKP = molecular target: T2, KGRERKRKKP; assay: PepSet ELISA: biotinylated 10-mer on NeutrAvidin plate, antibody 10 µg/ml, OD450 [C]
T2 construct: member of the PepSet library m27
T2 peptide: Biotin-SGSGKGRERKRKKP
Text: (§1) FIG. 8 is a set of graphs showing mapping of the α-RSPO3 Ab epitopes on RSPO3 protein by Pep-set.
(§2) The deduced amino acid sequence of RSPO3 (GenBank accession no. NP_116173) was used as the reference sequence to design the PepSet library of biotinylated linear peptides that cover the mature domain of RSPO3. The 121 peptides synthesized by Mimotopes (Victoria, Australia) were 10 amino acids in length and offset by 2 residues in these two formats: Biotin-SGSG-PEPTIDE-NH2 for N-terminal peptide and Biotin-SGSG-PEPTIDE-OH for the C-terminal peptide. The peptides (1-3 mg) were dissolved in 200 microliter 80/20 DMSO/water mixture and further diluted at 1:200 in PBS containing 0.1% BSA and 0.1% sodium azide as working solution. In order to attach different biotinylated peptides on each well of the plates, plates coated with NeutrAvidin and blocked with BSA (Thermo Scientific Pierce, Rockford, Ill.) were utilized. Plates were washed three times with 1× PBS with 0.1% Tween 20 and then […] biotinylated peptide solution was applied to each well of plates. After one hour incubation at room temperature, plates were washed three times again with 1× PBST. α-RSPO3 antibodies at 10 μg/ml were then added to each well of plates and the plates were incubated with agitation for one hour. […] To detect bound anti-RSPO3 antibodies, Goat anti-human IgG-Fc-HPR was then applied to plates for one hour. After removing extra detection antibodies by washing the plates with 1× PBST, 100 μl Tetramethylbenzidine (TMB) substrate solution was added to each well for 20 minutes.

ERGKKGRERK = molecular target: T3, ERGKKGRERK; assay: as above
T3 construct: member of the PepSet library m27
T3 peptide: Biotin-SGSGERGKKGRERK
Text: as §1, §2

RENKQQQKKR = molecular target: T4, RENKQQQKKR; assay: as above
T4 construct: member of the PepSet library m27
T4 peptide: Biotin-SGSGRENKQQQKKR
Text: as §1, §2

GKKGRERKRK = molecular target: T5, GKKGRERKRK; assay: as above
T5 construct: member of the PepSet library m27
T5 peptide: Biotin-SGSGGKKGRERKRK
Text: as §1, §2

RSPO2 [2] = molecular target: T6, RSPO2 (UniProt Q6UXX9 22-243, limits assumed); assay: Western blot: RSPO1-4 on the blot, probed with the hybridoma antibody [A]
T6 sequence (Q6UXX9 22-243 limits assumed): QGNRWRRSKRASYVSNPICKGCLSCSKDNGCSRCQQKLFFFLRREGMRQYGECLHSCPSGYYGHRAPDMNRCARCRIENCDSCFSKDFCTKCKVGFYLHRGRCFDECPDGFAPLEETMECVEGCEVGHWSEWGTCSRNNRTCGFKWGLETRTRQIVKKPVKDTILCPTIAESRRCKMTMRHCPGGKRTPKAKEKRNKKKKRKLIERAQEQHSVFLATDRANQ

RSPO1 [3] = molecular target: T7, RSPO1 (UniProt Q2MKA7 21-263, limits assumed); assay: as above
T7 sequence (Q2MKA7 21-263 limits assumed): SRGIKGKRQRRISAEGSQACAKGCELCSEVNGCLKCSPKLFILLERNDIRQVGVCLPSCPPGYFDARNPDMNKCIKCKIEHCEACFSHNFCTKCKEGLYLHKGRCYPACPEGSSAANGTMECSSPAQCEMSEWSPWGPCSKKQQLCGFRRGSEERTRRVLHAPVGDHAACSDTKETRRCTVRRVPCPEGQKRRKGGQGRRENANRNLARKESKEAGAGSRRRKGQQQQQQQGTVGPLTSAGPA

RSPO4 [4] = molecular target: T8, RSPO4 (UniProt Q2I0M5 20-234, limits assumed); assay: as above
T8 sequence (Q2I0M5 20-234 limits assumed): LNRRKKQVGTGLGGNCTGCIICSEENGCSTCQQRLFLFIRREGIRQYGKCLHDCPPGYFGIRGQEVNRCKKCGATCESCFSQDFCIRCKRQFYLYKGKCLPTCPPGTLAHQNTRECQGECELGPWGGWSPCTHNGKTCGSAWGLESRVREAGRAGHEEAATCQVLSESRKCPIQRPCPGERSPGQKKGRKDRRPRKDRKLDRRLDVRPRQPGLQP

RSPO2 [5] = molecular target: T6, RSPO2; assay: Western blot: RSPO1-4 on the blot, probed with the hybridoma antibody [B]
RSPO1 [6] = molecular target: T7, RSPO1; assay: as above
RSPO4 [7] = molecular target: T8, RSPO4; assay: as above
[8] = molecular target: T1, recombinant human RSPO3 protein; assay: ELISA on coated antigen (BSA, RSPO1, RSPO2, RSPO3, RSPO4), absorbance 450 nm [B]
[9] = molecular target: T1, recombinant human RSPO3 protein; assay: cell-based or functional assay
[10] = molecular target: T1, recombinant human RSPO3 protein; assay: SPR (Biacore T200); hRSPO3 immobilised on CM5 chip, antibody injected, single-cycle, 1:1 model
Protocol: FIG. 7 is a graph showing use of Biacore to measure the binding kinetics of α-RSPO3 Abs-antigen interaction. The binding sensorgrams were generated using a Biacore T200 and then fitted to a simple 1:1 interaction model. […] The association was monitored for 2 min, and the final dissociation time was 15 min hRSPO3 was immobilized on a CMS chip at 27.5 RU.
The binding kinetics between α-RSPO3 Abs and recombinant human RSPO3 protein (hRSPO3) were performed at 25° C. using a Biacore T200 biosensor equipped with a CMS Series S Sensor Chip (GE Healthcare). […] Obtained sensorgrams were corrected by double subtracting the signal obtained on a reference surface and the signal of the running buffer. Sensograms were fit globally with BIAcore T200 evaluation software 3.0 using 1:1 binding model to yield affinity constants (KD values) for α-RSPO3 Abs. Replicate measurements were made in separate experiments, using independently prepared α-RSPO3 Abs dilution series and huRSPO3-coated chip surfaces.

RSPO2 [11] = molecular target: T6, RSPO2; assay: ELISA on coated antigen (BSA, RSPO1, RSPO2, RSPO3, RSPO4), absorbance 450 nm [A]
RSPO1 [12] = molecular target: T7, RSPO1; assay: as above
RSPO4 [13] = molecular target: T8, RSPO4; assay: as above

B1: anti-RSPO3 hybridoma antibody A6 (antibody, IgG2a, V domains shown)
VH: QVQLQQSGAEIVRSGASVKLSCTASGFSITEYYIHWVKQRPDQGLEWIGMIDPENGDTDYAPKFQGKATMTADTSSNTVNLQLSSLTSEDTAVYYCHGPGPLEYWGQGTTLTVSS
VL: DIVMTQSPLSLPVSLGDQASISCRSSQSIVHSNGNTYLEWYLQKPGQSPNLLIYRVSNRFSGVPDRFNGSGSGTDFTLKISRVEPEDLGVYSCFQASHVPYTFGGGTKLEIKR
notes: Murine hybridoma mAb; also called clone A6; hybridoma A6
Kd [1]: 10.4 nM | koff [1]: 0.0025 s⁻¹ | kon [1]: 241000 M⁻¹ s⁻¹ | binding result (KGRERKRKKP): binds | binding result (ERGKKGRERK): binds | binding result (RENKQQQKKR): binds | binding result (GKKGRERKRK): binds | binding result (RSPO2 [2]): no binding | binding result (RSPO1 [3]): no binding | binding result (RSPO4 [4]): no binding

B2: anti-RSPO3 hybridoma antibody B1 (antibody, IgG1, V domains shown)
VH: QIQLQESGPGLVKPSQSLSLTCSVTGYSITSGYYWNWIRQFPGNKLEWMGYISYDGTNNYNPSLKDRISITRDTSMNQFFLKLNSVTTEDTATYYCSVLLIQYFNIWGAGTTVTVSS
VL: DIQMTQSPASLSASVGETVTITCRTSESVNNFLAWFHQKQGKSPQLLVYHAKTLADGVSSRFSGSGSGTQYSLKINSLQPEDFGNYYCQHFWSIPWTFGGGTKLEIKR
notes: Murine hybridoma mAb; also called clone B1
binding result (RSPO2 [5]): no binding | binding result (RSPO1 [6]): no binding | binding result (RSPO4 [7]): no binding | binding result [8]: binds

B3: rosmantuzumab (131R010) (antibody, V domains shown)
VH: QVQLVQSGAEVKKPGASVKVSCKASGYTFTDYSIHWVRQAPGQGLEWIGYIYPSNGDSGYNQKFKNRVTMTRDTSTSTAYMELSRLRSEDTAVYYCATYFANNFDYWGQGTTLTVSS
VL: DIQMTQSPSSLSASVGDRVTITCKASQSVDYDGDSYMNWYQQKPGKAPKLLIYAASNLESGVPSRFSGSGSGTDFTLTISPVQAEDFATYYCQQSNEDPLTFGAGTKLELK
IC50 in the WNT reporter assay (MDA-MB436 TCF/LEF-Luc, Wnt3a plus hRSPO3) [9]: 58.7 nM | Kd [10]: 0.02 nM | koff [10]: 0.000181 s⁻¹ | kon [10]: 9.4e+06 M⁻¹ s⁻¹

B4: anti-RSPO3 hybridoma antibody A4 (antibody, IgG1, V domains shown)
VH: QVQLQESGAELAKPGASVKMSCKASGHTLTYYWMHWVKQRPGQGLEWIGYIDPSTGYSEYNQRFEGKATLTADKSSGTVYMQLSSLTSEDSAVYYCARNGPFAYWGQGTLVTVSA
VL: DNVLTQSPAIMSASPGEKVTMTCSASSSVNYMYWYQQKPGSSPRLLIYDTSKLASGVPVRFSGSGSGTSYSLTISRMEAEDAATYYCQQWSSSPLTFGVGAKLEIKR
notes: Murine hybridoma mAb; also called clone A4; hybridoma A4
Kd [1]: 27 nM | koff [1]: 0.000884 s⁻¹ | kon [1]: 32700 M⁻¹ s⁻¹ | binding result (RSPO2 [11]): no binding | binding result (RSPO1 [12]): no binding | binding result (RSPO4 [13]): no binding

B5: reference anti-RSPO3 antibody 131R002 (antibody, V domains shown)
VH: QVQLQESGPELVKPGASVKISCKASGYTFTDYSIHWVKQNHGKSLDWIGYIYPSNGDSGYNQKFKNRATLTVDTSSSTAYLEVRRLTFEDSAVYYCATYFANYFDYWGQGTTLTVSS
VL: DIVLTQSPASLAVSLGQRATISCKASQSVDYDGDSYMNWYQQKPGQPPKLLIYAASNLESGIPARFSGSGSGTDFTLNIHPVEEEDAATYYCQQSNEDPLTFGAGTKLELKR
Kd [1]: 1.93 nM | koff [1]: 0.00202 s⁻¹ | kon [1]: 1.05e+06 M⁻¹ s⁻¹

From patent publication US20210163580A1 (NATIONAL HEALTH RESEARCH INSTITUTES, published 2021)
